Tests used:
[1] = tested on: NHE6 mutant hippocampal neurons; experiment: Axonal and dendritic branching of cultured hippocampal neurons with exogenous BDNF; type: cell-based, mouse
Method: (§1) Hippocampi were dissected from P0-P1 mice, dissociated with papain (20 units/ml) in Earle's Balanced Salt Solution (EBSS) with bicarbonate at 37° C. for 30 min and triturated with a 1 ml pipette. Hippocampal neurons were placed on 8-well chamber slides coated with 1 mg/ml poly-D-lysine at a cell density of 3×10^5 cells/ml. For neuronal morphology, neurons at 1 DIV were transfected with EGFP constructs or together with testing constructs at a ratio of 1:1 using Lipofectamine 2000 (Invitrogen) according to manufacturer guidelines. For LysoTracker experiments, GFP transfected neurons at 5 DIV were incubated with 100 nM Lysotracker Red DND-99 at 37° C. for 30 min. After washing with PBS for 3 times, cells were imaged live or cells were fixed with 4% paraformaldehyde for 15 min and Z-series images were obtained under a Zeiss LSM710 confocal laser scanning microscope.
Images of cultured hippocampal neurons (2 DIV) were captured from randomly chosen fields on a Zeiss LSM710 confocal laser scanning microscope, blinded to genotypes, and traced using Metamorph Neurite Outgrowth software. The number of processes (i.e., neurites emanating directly from the cell body) per cell, the total number and total cumulative length of all neurite branches per cell and the length of the longest neurite per cell were determined. Z-series images of individual GFP-filled neurons at 5 DIV were obtained on a Carl Zeiss 710 confocal microscope and traced manually using Neurolucida software. Quantification of the branch number and total length of axons and dendrites per cell was done on images acquired with 20× objective. Quantitative analysis for LysoTracker red labeled endosomes was performed by using Neurolucida in images acquired with 63× objective. LysoTracker red puncta that completely overlapped with GFP-labeled dendrites or axons were scored as co-localized endosomes. Each experiment was performed on at least three different batches of cultured neurons.
Taken together our data support a model wherein due to loss of NHE6 there is an abnormal acidification of early endosomes resulting in impoverished branching as a result of decreases in BDNF/TrkB signaling. Given this model, we predicted that exogenous and high levels of BDNF may rescue the branching defects through enhancing TrkB signaling. To investigate the ability of exogenous BDNF to interact and improve the cellular phenotype seen, we added BDNF (50 ng/ml) to wild-type and mutant cultures at 2 DIV and examined cultures on day 5 for effects on axonal and dendritic branching associated with NHE6 mutation. […] We saw effects on both branching as well as an increase in the number of primary dendrites. […]

TrkB receptor = experiment: Western blot of TrkB receptor and phospho-Trk levels after BDNF in hippocampal cultures at 4 DIV; type: cell-based, mouse; conditions: for TrkB receptor level normalized to time of BDNF administration: 50 ng/ml BDNF for 30 min
Method: as §1
Next, we examined directly the levels of TrkB receptor in response to signaling. TrkB is well-known to be endocytosed upon binding BDNF and a significant degree of signaling has been proposed to occur within signaling endosomes upon endocytosis. […] To test this hypothesis, we examined TrkB receptor levels and phospho-Trk levels in response to BDNF signaling in NHE6 mutant and wild type hippocampal cultures at 4 DIV.

[2] = NHE6 mutant neurons, BDNF 50 ng/ml added at 2 DIV, examined on day 5

B1: BDNF: secreted protein, member of the neurotrophin family of growth factors; binds to the TrkB receptors (protein)
chain: HSDPARRGELSVCDSISEWVTAADKKTAVDMSGGTVTVLEKVPVSKGQLKQYFYETKCNPMGYTKEGCRGIDKRHWNSQCRTTQSYVRALTMDSKKRIGWRFIRIDTSCVCTLTIKRGR
- rescue of branching defects (in words) ([1]; NHE6 mutant cells, BDNF 50 ng/ml, 2 DIV to day 5): increased both axonal and dendritic branching in mutant cells to a level approaching wild-type levels
- axonal branching [1, 2]: 27.7+/−2.0 branch points per cell
- dendritic branching [1, 2]: 34.4+/−2.4 branches per cell
- primary dendrites [1, 2]: 8.7+/−0.4 dendrites
- TrkB receptor level normalized to time of BDNF administration (TrkB receptor; NHE6 mutant neurons): 0.79+/−0.04
- TrkB receptor level in mutant neurons as % of the control (TrkB receptor; mutant/WT, 50 ng/ml BDNF, 30 min): 76.5%
- TrkB receptor level in mutant neurons as % of wild type (TrkB receptor; mutant/WT, 50 ng/ml BDNF, 60 min): 73.3%
- TrkB receptor level in mutant neurons as % of wild type (TrkB receptor; mutant/WT, 50 ng/ml BDNF, 2 h): 74.9%
- induction of phospho-Trk in mutant compared to control (TrkB receptor; mutant/WT, after adding BDNF, throughout the whole treatment duration): approximately 48%
- TrkB receptor level normalized to time of BDNF administration (TrkB receptor; wild type neurons): 1.03+/−0.06
